Drawing on patent US20220267460A1, this text covers EC50 (nM) Mean, FcγRIIIa signaling in ADCC reporter assay (HEK-PD-L1 target cells, Jurkat/FcγRIIIa effector cells, luciferase), EC50 (nM) Mean, FcγRIIIa signaling in ADCC reporter assay (Raji target cells, Jurkat/FcγRIIIa effector cells, luciferase) and EC50 (nM) Mean, FcγRIIa signaling in ADCP reporter assay (Raji target cells, Jurkat/FcγRIIa-H effector cells, luciferase) for two substances.

One assay deals with FcγRIIIa (UniProt P08637). Briefly: cell-based or functional assay.
The target of assay [1] is human FcγRIIa-H variant (Histidine at amino acid 131) (human) (UniProt P12318). Briefly: cell-based or functional assay.
human FcγRIIa-H variant (Histidine at amino acid 131) (human), sequence (P12318 34-317, change not shown): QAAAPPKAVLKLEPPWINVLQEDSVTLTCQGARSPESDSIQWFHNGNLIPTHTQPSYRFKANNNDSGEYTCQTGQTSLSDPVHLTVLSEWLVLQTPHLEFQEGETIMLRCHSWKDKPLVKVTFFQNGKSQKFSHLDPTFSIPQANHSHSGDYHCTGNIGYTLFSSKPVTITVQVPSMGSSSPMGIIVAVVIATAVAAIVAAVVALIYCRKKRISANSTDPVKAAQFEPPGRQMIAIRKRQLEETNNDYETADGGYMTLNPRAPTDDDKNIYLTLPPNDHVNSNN

FcγRIIIa, sequence (P08637 17-254 F176V limits assumed): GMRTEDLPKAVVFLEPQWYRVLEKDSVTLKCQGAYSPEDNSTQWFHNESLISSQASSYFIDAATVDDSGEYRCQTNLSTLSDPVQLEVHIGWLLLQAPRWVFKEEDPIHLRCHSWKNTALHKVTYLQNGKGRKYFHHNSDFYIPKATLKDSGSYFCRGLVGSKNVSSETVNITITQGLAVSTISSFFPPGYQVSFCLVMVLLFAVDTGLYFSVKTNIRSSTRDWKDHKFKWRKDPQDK

“avelumab (Bavencio) monoclonal antibody, fucosylated”: the EC50 (nM) Mean, FcγRIIIa signaling in ADCC reporter assay (HEK-PD-L1 target cells, Jurkat/FcγRIIIa effector cells, luciferase) with FcγRIIIa is 0.049 nM. As to “obinutuzumab monoclonal antibody, fucosylated”, the EC50 (nM) Mean, FcγRIIIa signaling in ADCC reporter assay (Raji target cells, Jurkat/FcγRIIIa effector cells, luciferase) with FcγRIIIa was 0.08 nM. In assay [1], this substance came in with an EC50 (nM) Mean, FcγRIIa signaling in ADCP reporter assay (Raji target cells, Jurkat/FcγRIIa-H effector cells, luciferase) of 7.1 nM.
